According to article doi:10.1101/2021.04.13.439655:

What was measured:
[1] = biological target: extended construct of the non-phosphorylated Smad2 MH2 domain (S2LMH2); test: SAXS with ensemble optimization method
[2] = biological target: full-length phosphomimetic Smad2 (S2FLEEE) (UniProt Q15796); test: SAXS with ensemble optimization method

extended construct of the non-phosphorylated Smad2 MH2 domain (S2LMH2) (domain or fragment), sequence (Q15796 269-467): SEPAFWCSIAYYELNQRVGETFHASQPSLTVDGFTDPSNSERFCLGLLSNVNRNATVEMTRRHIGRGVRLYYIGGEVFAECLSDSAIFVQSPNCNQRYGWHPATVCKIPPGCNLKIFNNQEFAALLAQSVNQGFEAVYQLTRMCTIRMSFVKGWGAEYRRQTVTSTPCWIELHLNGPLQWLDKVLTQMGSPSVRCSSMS
full-length phosphomimetic Smad2 (S2FLEEE) (from UniProt Q15796 1-467) (natural protein), sequence (Q15796 whole entry): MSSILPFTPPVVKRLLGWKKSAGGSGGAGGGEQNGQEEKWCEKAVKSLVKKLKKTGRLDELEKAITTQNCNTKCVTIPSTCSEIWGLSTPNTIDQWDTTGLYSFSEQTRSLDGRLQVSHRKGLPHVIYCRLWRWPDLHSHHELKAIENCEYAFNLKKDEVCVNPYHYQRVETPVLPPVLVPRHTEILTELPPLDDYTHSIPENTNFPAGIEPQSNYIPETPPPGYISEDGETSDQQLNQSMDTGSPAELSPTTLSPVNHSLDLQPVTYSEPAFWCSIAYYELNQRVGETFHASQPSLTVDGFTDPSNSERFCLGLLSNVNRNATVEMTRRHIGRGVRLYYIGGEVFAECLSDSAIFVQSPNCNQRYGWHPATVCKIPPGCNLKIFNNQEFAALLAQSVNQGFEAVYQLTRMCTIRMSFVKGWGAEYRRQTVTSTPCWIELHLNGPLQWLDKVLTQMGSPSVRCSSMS

## extended construct of the non-phosphorylated Smad2 MH2 domain (S2LMH2) (domain or fragment)
[1]
  percent of the total population as trimer at 15 and 30 μM: 50%
  stoichiometry N: 3

## full-length phosphomimetic Smad2 (S2FLEEE) (from UniProt Q15796 1-467) (natural protein)
[2]
  percent of the population as dimer at all concentrations analyzed: 36%
  percent of the population as trimer at 28.1 μM: 44.8%
